Molecular target: T1, osteocalcin C-terminal 7-residue peptide BGP-C7 (human)
T1 construct: C-terminal 7 residues of human osteocalcin (bone Gla protein, BGP), printed as NH2-RRFYGPV-COOH; Free N- and C-termini as printed (NH2-RRFYGPV-COOH); also called antigen peptide; osteocalcin C-terminal peptide
T1 chain: RRFYGPV
Assay: crystal structure; KTM219 Fab with three molar excess BGP-C7, complex purified by gel filtration; crystallised at 20 °C, sitting drop, 0.07 M citric acid, 0.03 M Bis-tris propane (pH 3.4), 16% w/v PEG 3350, microseeding; refined to 2.30 Å
Settings: both partners purified

B1: Fab fragment of anti-osteocalcin C-terminal peptide antibody KTM219 (Fab, V domains shown)
VH: QVKLQQSGAEFVKAGASVKLSCKTSGYTFNNYWIHWVKQSPGQGLEWIGEIDPSDGYSNYNQKFKGKATLTVDKSSSTAYMHLNSLTSEDSAVYYCTSSTSVGGSWGQGTTVTVSS
VL: DIELTQSPLSLPVSLGDQASISCTSSQSLLHSNGDTYLHWYLQKPGQSPKLLIYTLSNRFSGVPDRFSGSGSGTDFTLKISRVEAADLGIYFCSQTTHVPYTFGGGTKLEIK
notes: heavy chain (VH-CH1) of KTM219 Fab; light chain (VL-CL) of KTM219 Fab; also called KTM219 Fab
- binding result: binds
